Molecular target: Transportin-1 (TNPO1) (UniProt Q92973)
Assay: ITC; MicroCal VP-ITC, 28 injections of 8 µl at 25°C; 50 mM Tris-HCl pH 7.5, 150 mM NaCl, 5 mM TCEP, 0.04% NaN3; standard one-site model; which protein was in the syringe is not given

Sequence of UniProt Q92973 (Q92973 whole entry): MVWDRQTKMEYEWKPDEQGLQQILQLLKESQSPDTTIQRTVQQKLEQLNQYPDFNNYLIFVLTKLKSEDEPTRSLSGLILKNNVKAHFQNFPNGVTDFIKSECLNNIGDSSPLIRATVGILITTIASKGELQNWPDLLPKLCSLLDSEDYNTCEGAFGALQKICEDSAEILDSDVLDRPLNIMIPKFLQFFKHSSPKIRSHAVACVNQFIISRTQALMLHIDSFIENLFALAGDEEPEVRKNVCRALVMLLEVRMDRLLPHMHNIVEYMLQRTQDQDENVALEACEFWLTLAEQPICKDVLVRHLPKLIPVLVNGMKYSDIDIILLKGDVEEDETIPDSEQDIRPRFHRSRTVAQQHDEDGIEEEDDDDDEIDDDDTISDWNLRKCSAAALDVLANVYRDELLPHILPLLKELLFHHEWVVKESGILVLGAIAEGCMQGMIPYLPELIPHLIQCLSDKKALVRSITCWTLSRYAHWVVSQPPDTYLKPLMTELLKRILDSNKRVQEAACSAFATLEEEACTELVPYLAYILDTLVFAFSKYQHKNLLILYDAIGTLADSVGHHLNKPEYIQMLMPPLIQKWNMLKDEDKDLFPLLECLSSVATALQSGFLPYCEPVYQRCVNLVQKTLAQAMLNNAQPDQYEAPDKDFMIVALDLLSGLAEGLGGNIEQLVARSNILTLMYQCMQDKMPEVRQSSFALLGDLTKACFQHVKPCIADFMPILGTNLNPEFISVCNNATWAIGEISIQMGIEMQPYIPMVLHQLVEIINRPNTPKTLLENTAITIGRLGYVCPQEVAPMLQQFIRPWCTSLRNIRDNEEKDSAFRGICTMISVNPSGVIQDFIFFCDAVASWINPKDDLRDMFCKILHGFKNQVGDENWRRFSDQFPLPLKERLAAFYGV

**Q.** Which Kd does the source give for “RG/RGG region of cold-inducible RNA-binding protein (CIRBP-RGG, amino acids 68-137) (from UniProt Q14011 68-137) (domain or fragment)” here?
**A.** The Kd was 124 nM.

From publication PMC8562343
